Experiment [1] has as its target T1, p97 receptor (melanotransferrin receptor, MTf-R) on bovine brain capillary endothelial cells (BBCECs) (bovine). Kind of experiment: cell-based or functional assay.
Experiment [2] has as its target p97 receptor on isolated human brain capillaries (human). Put plainly: cell-based or functional assay.
In experiment [3] the target is T1, p97 receptor (melanotransferrin …). Put plainly: [125I]-p97 (25 nM) binding to BBCECs, 2 h at 4 C, with or without saponin.
The target is the same in experiment [4]. Kind of experiment: Scatchard plot of specific [125I]-p97 binding to saponin-treated BBCECs (FIG. 12c).
The target is the same in experiment [5]. Put plainly: Scatchard analysis of [125I]-p97 binding to saponin-permeabilized BBCEC monolayers at 4 C, displaced by unlabelled p97.

For orientation: Kd means the constant that tells how readily two partners part at equilibrium. Low readings indicate tighter binding, high ones weaker binding.

B1: recombinant human melanotransferrin (p97) (ligand, UniProt P08582 20-709, looked up)
chain: GMEVRWCATSDPEQHKCGNMSEAFREAGIQPSLLCVRGTSADHCVQLIAAQEADAITLDGGAIYEAGKEHGLKPVVGEVYDQEVGTSYYAVAVVRRSSHVTIDTLKGVKSCHTGINRTVGWNVPVGYLVESGRLSVMGCDVLKAVSDYFGGSCVPGAGETSYSESLCRLCRGDSSGEGVCDKSPLERYYDYSGAFRCLAEGAGDVAFVKHSTVLENTDGKTLPSWGQALLSQDFELLCRDGSRADVTEWRQCHLARVPAHAVVVRADTDGGLIFRLLNEGQRLFSHEGSSFQMFSSEAYGQKDLLFKDSTSELVPIATQTYEAWLGHEYLHAMKGLLCDPNRLPPYLRWCVLSTPEIQKCGDMAVAFRRQRLKPEIQCVSAKSPQHCMERIQAEQVDAVTLSGEDIYTAGKTYGLVPAAGEHYAPEDSSNSYYVVAVVRRDSSHAFTLDELRGKRSCHAGFGSPAGWDVPVGALIQRGFIRPKDCDVLTAVSEFFNASCVPVNNPKNYPSSLCALCVGDEQGRNKCVGNSQERYYGYRGAFRCLVENAGDVAFVRHTTVFDNTNGHNSEPWAAELRSEDYELLCPNGARAEVSQFAACNLAQIPPHAVMVRPDTNIFTVYGLLDKAQDLFGDDHNKNGFKMFDSSNYHGQDLLFKDATVRAVPVGEKTTYRGWLGLDYVAALEGMSSQQC
notes: also called MTf
For B1, in experiment [1], the “decrease in apical-to-basal transport of [125I]-p97 (25 nM) across BBCEC monolayers with a 200-fold molar excess of unlabelled p97” value is 69%. In addition, the “decrease in uptake of [125I]-p97 (100 nM) into isolated human brain capillaries, 1 h at 37 C, with a 50-fold molar excess of unlabelled p97” value in experiment [2] amounted to 60%. The “fold increase of [125I]-p97 associated with cells after saponin permeabilization (against untreated cells)” value in experiment [3] amounted to 4 fold. Moreover, the results for the Kd in experiment [4] and in experiment [5] were roughly 1 µM and 1.4 µM, respectively.

The values are drawn from patent publication US20030129186A1 (published 2003).
